In patent publication US20120039802A1 (published 2012) one finds binding result and Kd data, which are given here for 20 molecules.

fluorescein = fluorescein label on the side chain of the C-terminal Lys A value given as a limit tells only on which side of the number the result lay.

To fix the notation:
B1: 545-H12 synthetic fluorescein-labeled peptide (SEQ ID NO: 399) (peptide)
peptide: Ac-GDYSECFFEPDSFEVKCYDRDPGGGK(fluorescein)-NH2
modifications: cysteine pairing not given here
B2: 551-H10 synthetic fluorescein-labeled peptide (SEQ ID NO: 370) (peptide)
peptide: Ac-GSFFPCWRIDRFGYCHANAPGGGK(fluorescein)-NH2
modifications: cysteine pairing not given here
B3: 548-F07 synthetic fluorescein-labeled peptide (SEQ ID NO: 369) (peptide)
peptide: Ac-GSPEMCMMFPFLYPCNHHAPGGGK(fluorescein)-NH2
modifications: cysteine pairing not given here
B4: 331-G04 synthetic fluorescein-labeled peptide (SEQ ID NO: 055) (peptide)
peptide: Ac-AGSWHCAGPPSFECWEFGTGGGK(fluorescein)-NH2
modifications: cysteine pairing not given here
B5: 130-E10 synthetic fluorescein-labeled peptide (SEQ ID NO: 472) (peptide)
peptide: Ac-AQEWEREYFVDGFWGSWFGIPHGGGK(fluorescein)-NH2
B6: 571-C05 synthetic fluorescein-labeled peptide (SEQ ID NO: 001) (peptide)
peptide: Ac-GSWIICWWDNCGSSAPGGGK(fluorescein)-NH2
modifications: cysteine pairing not given here
B7: 117-F08 synthetic fluorescein-labeled peptide (SEQ ID NO: 462) (peptide)
peptide: Ac-AQHQYGQMMVLHIQYDMGEFIPGGGK(fluorescein)-NH2
B8: 94-E08 synthetic fluorescein-labeled peptide (SEQ ID NO: 454) (peptide)
peptide: Ac-AQYDTWVFQFIHEVPGELVAMQGGGK(fluorescein)-NH2
B9: 02-B08 synthetic fluorescein-labeled peptide (SEQ ID NO: 467) (peptide)
peptide: Ac-AQHSVQRQMDVWMPVQFMAGFTGGGK(fluorescein)-NH2
B10: 104-C09 synthetic fluorescein-labeled peptide (SEQ ID NO: 461) (peptide)
peptide: Ac-AQDLKPWTAGWEPPWLWTDRGPGGGK(fluorescein)-NH2
B11: 76-D09 synthetic fluorescein-labeled peptide (SEQ ID NO: 463) (peptide)
peptide: Ac-AQSPYIFPIDDSGRQIFVIQWGGGGK(fluorescein)-NH2
B12: 95-A11 synthetic fluorescein-labeled peptide (SEQ ID NO: 456) (peptide)
peptide: Ac-AQVGSPMLPSWFSFEANWSSGGGK(fluorescein)-NH2
B13: 127-A07 synthetic fluorescein-labeled peptide (SEQ ID NO: 469) (peptide)
peptide: Ac-AQGFELWVDHTRNFFIAISPGGGK(fluorescein)-NH2
B14: 79-B02 synthetic fluorescein-labeled peptide (SEQ ID NO: 475) (peptide)
peptide: Ac-AQHWDYDSGSDFWFPVFFLEHHGGGK(fluorescein)-NH2
B15: 524-H02 synthetic fluorescein-labeled peptide (SEQ ID NO: 492) (peptide)
peptide: Ac-AQVEDMATVHFKFNPATHEVIWGGGK(fluorescein)-NH2
B16: 103-G08 synthetic fluorescein-labeled peptide (SEQ ID NO: 459) (peptide)
peptide: Ac-AQVGTAEAIMFSDVEDTGVHKFGGGK(fluorescein)-NH2
B17: 117-F04 synthetic fluorescein-labeled peptide (SEQ ID NO: 479) (peptide)
peptide: Ac-AQWPHDGLVHWGEVIMLRFGGGK(fluorescein)-NH2
B18: 93-C08 synthetic fluorescein-labeled peptide (SEQ ID NO: 464) (peptide)
peptide: Ac-AQVPDWLSAVVIEKLIEYGMMVGGGK(fluorescein)-NH2
B19: 116-H02 synthetic fluorescein-labeled peptide (SEQ ID NO: 466) (peptide)
peptide: Ac-AQKETWEFFDIVYGSGWKFNSPGGGK(fluorescein)-NH2
B20: 94-F07 synthetic fluorescein-labeled peptide (SEQ ID NO: 458) (peptide)
peptide: Ac-AQPYYELQDADMLLVVALLSTGGGGK(fluorescein)-NH2

For the first assay, the target named is T1, mouse cMet (mouse, UniProt P16056 25-931, limits assumed).
T1 construct: Construct not described; also called Kd (mouse) target
T1 sequence (P16056 25-931 limits assumed): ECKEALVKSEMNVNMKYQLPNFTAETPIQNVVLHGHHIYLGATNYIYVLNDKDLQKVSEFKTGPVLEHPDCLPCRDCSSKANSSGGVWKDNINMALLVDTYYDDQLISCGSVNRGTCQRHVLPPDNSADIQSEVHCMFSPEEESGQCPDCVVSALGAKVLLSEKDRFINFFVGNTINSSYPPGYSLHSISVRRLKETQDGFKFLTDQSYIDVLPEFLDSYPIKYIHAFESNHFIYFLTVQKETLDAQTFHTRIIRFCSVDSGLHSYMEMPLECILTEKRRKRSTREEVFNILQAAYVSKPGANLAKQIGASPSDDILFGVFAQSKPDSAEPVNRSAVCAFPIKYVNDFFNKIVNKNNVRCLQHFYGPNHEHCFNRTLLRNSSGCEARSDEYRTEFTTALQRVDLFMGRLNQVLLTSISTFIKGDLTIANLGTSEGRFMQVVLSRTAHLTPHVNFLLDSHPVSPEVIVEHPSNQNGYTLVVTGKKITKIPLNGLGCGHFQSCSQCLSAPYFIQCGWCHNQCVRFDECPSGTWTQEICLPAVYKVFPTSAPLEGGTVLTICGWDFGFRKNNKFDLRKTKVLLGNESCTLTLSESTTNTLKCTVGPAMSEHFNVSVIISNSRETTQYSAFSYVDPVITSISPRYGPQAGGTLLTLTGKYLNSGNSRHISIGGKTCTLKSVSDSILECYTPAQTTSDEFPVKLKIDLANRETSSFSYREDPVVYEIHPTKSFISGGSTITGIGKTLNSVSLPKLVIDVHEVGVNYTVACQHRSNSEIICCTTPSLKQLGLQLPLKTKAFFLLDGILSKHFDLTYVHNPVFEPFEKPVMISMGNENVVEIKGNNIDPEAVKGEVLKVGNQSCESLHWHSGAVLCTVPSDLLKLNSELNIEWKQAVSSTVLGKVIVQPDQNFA
The assay can be described thus: fluorescence polarization. In general terms: In fluorescence polarisation assays a small probe gives low polarisation when free and higher when bound to something large.
As for B1, the binding result is recorded as “no binding”. Take B2: the binding result is “no binding”. For the molecule B3, the binding result is “no binding”.

The target of another assay is T1, mouse cMet. The assay can be described thus: fluorescence polarization, mouse target. As to the method: (§1) Fluorescence anisotropy measurements were performed in 384-well microplates in a volume of 10 μL in binding buffer (PBS, 0.01% Tween-20, pH 7.5) using a Tecan Polarion fluorescence polarization plate reader ([…]). […] Binding mixtures were equilibrated for 10 minutes in the microplate at 30 C before measurement. The observed change in anisotropy was fit to the equation below via nonlinear regression to obtain the apparent KD. This equation (1) assumes that the synthetic peptide and cMet form a reversible complex in solution with 1:1 stoichiometry.
As for B4, the Kd (in general, the constant that tells how readily two partners part at equilibrium) turned out to be 1100 nM. In other words, the single-digit micromolar range. Molecule B5 showed a Kd of 7650 nM.

In the case of B6, the Kd was 3500 nM.

The target in the next assay is T2, cMet-Fc fusion protein (extracellular domain of the cMet receptor expressed as an Fc-fusion protein) (human, UniProt P08581 25-932).
T2 construct: extracellular domain; also called soluble cMet-Fc-fusion protein; soluble cMet receptor; not shown: Fc part
T2 sequence (P08581 25-932): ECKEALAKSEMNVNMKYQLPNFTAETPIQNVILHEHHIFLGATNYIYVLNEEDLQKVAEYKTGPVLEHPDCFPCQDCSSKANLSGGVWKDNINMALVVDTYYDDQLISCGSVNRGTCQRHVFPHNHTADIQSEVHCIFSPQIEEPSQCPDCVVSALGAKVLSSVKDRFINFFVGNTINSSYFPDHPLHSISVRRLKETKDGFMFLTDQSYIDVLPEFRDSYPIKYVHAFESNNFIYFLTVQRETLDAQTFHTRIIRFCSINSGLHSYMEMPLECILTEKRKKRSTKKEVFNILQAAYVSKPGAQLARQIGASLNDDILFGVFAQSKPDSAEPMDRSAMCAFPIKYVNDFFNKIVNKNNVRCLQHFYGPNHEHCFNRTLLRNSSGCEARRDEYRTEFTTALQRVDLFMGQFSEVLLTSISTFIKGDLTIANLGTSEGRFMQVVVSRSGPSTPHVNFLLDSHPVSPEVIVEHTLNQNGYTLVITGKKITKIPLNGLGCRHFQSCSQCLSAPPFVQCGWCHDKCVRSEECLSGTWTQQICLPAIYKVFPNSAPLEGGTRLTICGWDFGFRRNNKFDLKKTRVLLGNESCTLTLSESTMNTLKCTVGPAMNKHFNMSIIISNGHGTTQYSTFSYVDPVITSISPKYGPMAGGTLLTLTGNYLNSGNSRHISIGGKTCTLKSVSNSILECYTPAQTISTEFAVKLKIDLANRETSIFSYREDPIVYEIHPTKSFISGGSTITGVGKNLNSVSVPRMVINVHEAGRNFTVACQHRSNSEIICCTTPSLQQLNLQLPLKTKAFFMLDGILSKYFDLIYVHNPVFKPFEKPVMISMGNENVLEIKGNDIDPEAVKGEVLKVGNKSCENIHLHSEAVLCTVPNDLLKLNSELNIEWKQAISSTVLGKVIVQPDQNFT
The assay can be described thus: fluorescence polarization, 20 nM fluorescein peptide, cMet-Fc varied. The protocol: as §1
With B7, the Kd is greater than 2000 nM. B4 came in with a Kd of 900 nM. B8 had a Kd of 930 nM. B9 returned a Kd greater than 2000 nM. Molecule B1 had a Kd of 1150 nM. B10 returned a dissociation constant Kd greater than 2000 nM. Turning to B11, the Kd was greater than 2000 nM. Same read-out and setting: as for B12, the figure is 2300 nM; as for B13, 2400 nM; as for B14, 1900 nM. In turn, B15 had a dissociation constant (Kd) of 800 nM.

As to B16, the Kd was greater than 2000 nM.

For the molecule B17, the Kd came to 1700 nM.

Molecule B18 gave a Kd greater than 2000 nM.

B2: the Kd stood at 220 nM. In turn, B5 displayed a Kd of 2600 nM.

For B19, the Kd is greater than 2000 nM. B20 came in with a Kd of 3750 nM. Regarding B6, the Kd was 200 nM. This Kd is about 19-fold lower than that of the molecule before.
